According to patent EP1694709B1 (Fraunhofer-Gesellschaft zur Förderung der angewandten …, dated 2010):

Experiments:
CD64 (human) [1] = target: CD64 (human) (UniProt P12314); assay: cell-based or functional assay
CD64 (human) [2] = target: CD64 (human) (UniProt P12314)
CD64 = CD64 (human, UniProt P12314 16-374); assay: cell-based or functional assay

m22(scFv)2-ETA'
IC50 of growth inhibition (XTT-based colorimetric assay) on HL-60 cells (CD64 (human) [1]): 0.0117 µg/mL | IC50 of growth inhibition (XTT-based colorimetric assay) on U937 cells (CD64 (human) [1]): 0.0135 µg/mL

moAb m22 (antibody)
% inhibition of m22(scFv)-ETA' binding (CD64 (human) [2]): 70%

B1: m22(scFv)-ETA' (scFv)
chain 1: QVQLVESGGGVVQPGRSLRLSCSSSGFIFSDNYMYWVRQAPGKGLEWVATISDGGSYTYYPDSVKGRFTISRDNSKNTLFLQMDSLRPEDTGVYFCARGYYRYEGAMDYWGQGTPVTVSS
chain 2: DIQLTQSPSSLSASVGDRVTITCKSSQSVLYSSNQKNYLAWYQQKPGKAPKLLIYWASTRESGVPSRFSGSGSGTDFTFTISSLQPEDIATYYCHQYLSSWTFGQGTKLEIK
IC50 of growth inhibition (XTT-based colorimetric assay) on HL-60 cells (CD64): 0.0116 µg/mL | IC50 of growth inhibition (XTT-based colorimetric assay) on U937 cells (CD64): 0.0129 µg/mL
